Earlier results in patent publication US8257684B2, “Methods for identifying and targeting autonomic brain regions” (Neurosigma, Inc., priority 2008, dated 2012).
No end group written: not given here.

Biological target: T1, OX1R (Homo sapiens, UniProt O43613)
T1 sequence (O43613 1-425): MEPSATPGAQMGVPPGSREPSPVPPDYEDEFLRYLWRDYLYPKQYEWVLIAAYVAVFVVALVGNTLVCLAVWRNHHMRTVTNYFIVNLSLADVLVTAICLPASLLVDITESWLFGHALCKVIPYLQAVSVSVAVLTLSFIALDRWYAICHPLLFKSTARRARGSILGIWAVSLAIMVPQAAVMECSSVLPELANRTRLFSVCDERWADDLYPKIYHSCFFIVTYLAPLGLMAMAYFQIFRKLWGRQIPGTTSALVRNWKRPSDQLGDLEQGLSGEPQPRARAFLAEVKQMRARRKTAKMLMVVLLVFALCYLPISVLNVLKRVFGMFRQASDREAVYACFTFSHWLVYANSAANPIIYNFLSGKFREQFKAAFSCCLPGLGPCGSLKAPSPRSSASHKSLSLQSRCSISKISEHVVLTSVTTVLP
Conditions: ORXa versus ORXb; Lund et al., Journal of Biological Chemistry

Orexin-A (QPLPDCCRQKTCSCRLYELLHGAGNHAAGILTL; not fully specified (residue 1, C-terminus, bridges); cysteine pairing not given here; UniProt O43612 34-66, looked up) [ORXa, ORX molecule produced in the LHA; agonist of OX1R]
higher affinity of OX1R for ORXa than for ORXb: approximately 10 fold
